Laboratory results from the supplement of paper PMC12042874.
± gives the uncertainty stated by the source.

Experiment: amyloid nucleation score (Sup35N fusion, yeast selection) (log enrichment); library NNK3; higher = more nucleation; inactive = no reads after selection
In short: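 Psi-negative yeast expressed Sup35N fused to peptides of 20 random codons. They were induced 24 hours with 100 μM copper sulfate, grown 7 days at 30°C without adenine and uracil, and their plasmid inserts from input and output were Illumina-sequenced. The nucleation score is the DiMSum log enrichment of output over input reads, centred on the mode score of non-aggregating sequences. Sequences with under 100 input reads were excluded.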

Substance | amyloid nucleation score
LAKDVFIC | inactive
FCFDEEDVLRTGCNGDSYPG | inactive
SLGLNTPAREFYWGCILTFG | inactive
WWAISTLGMGNQLFLGVPRY | inactive
NMIKPSFFIIVVVNTQGFDA | 2.97 ± 0.063
VLFMMMERHSRSRSRGSLQ | 0.858 ± 0.23
SRLDALLMKLCFVICLRILK | inactive
SWCLERHGTRWSEFNYGPSS | inactive
YLFSSMLVILTCFRT | inactive
IMDDTSQSNRCYYEKVLCRG | 1.34 ± 0.092
YDTHWTVCLLSTCLTL | inactive
RKKTNCHINYFMDALFERLA | inactive
AMMVRCFRDPKHEK | inactive
MLLGRLSLEVKFEWIFPRIG | 0.687 ± 0.14
YFISRCIWLVKSYREIELRW | inactive
RVEMICFQDYLEYKRE | inactive
TNANFATDSHFLVITE | inactive
MRVVECLMRSLCRLDVRVHC | inactive
GRPTSRLMSNWTFPSATVSW | inactive
FVTSVQVRFNMGFFAELFAV | inactive
DHPYQRLIEWWLLCIYGSMY | inactive
DLDECKFPINELSFHSSMGM | 1.83 ± 0.091

Substance | amyloid nucleation score
DEVVWY | inactive
HGGIHCYFFYSYGDLEKEIL | 2.44 ± 0.078
SCSIIYRPPSIWRYSKRTSL | inactive
IRLWQEHWNWRGRSLFFRWC | inactive
LFDIVSQITLWQGPTHAFFK | inactive
WNGILHMMVGGLKTLIGMDY | inactive
LDNTLDN | inactive
YKHFYSFFCISFS | 1.88 ± 0.08
EHNYSTASITSTLSTPNRAI | inactive
PGYSCIRDIQITR | inactive
CVMAMPSNIEV | inactive
PLRKSGQPSYAMPTRHARCI | inactive
DNFRVDLVNRLLFYRISHAA | inactive
AWASIDVSNAL | inactive
ADMGGSVGHVSNKSVSSNLL | inactive
LHTPIMRNYR | inactive
SVKLLSVTSCDGGRAWWQGG | inactive
LFIRQG | inactive
SYRRIGHMRTKLGQVVR | inactive
HYADSVESRSALLWLVSFLF | inactive
TLSIEMGQLDRERVGLNCKR | inactive
RLFDLVYSGLVFRKHSHTAM | inactive

Substance | amyloid nucleation score
YRIGCRF | inactive
CRTQL | inactive
EYSLTLPYFVGSALPPQNTC | inactive
WRLEL | inactive
LVCNRWPNCANCRCRP | inactive
LYRAIIIRRWFGNMGDFHKP | inactive
DILTDQS | inactive
MILSNKVLIGCE | inactive
DRMKATVQLDFG | inactive
ARICIAACIRAICDGFSGRR | inactive
VPWGIVSFA | inactive
LFGCEQRYP | inactive
TFGFRNRYFELLSVVIRHLA | inactive
MRFDNVTMRVLLCFS | inactive
VINRHVCGRVGMLTGFDGLT | inactive
FLPPKMVLFPVSEWSLDLRY | inactive
LNPNYRNAYLNYRVLFY | inactive
AWVPMFFSLHMWHCNALNFC | inactive
IRLPIGQGLC | inactive
LFLVA | inactive
SFLDNCPRGNRGQVGSEPVS | inactive
